# From PMC3005033
# Like-named read-outs stand apart in the source and are kept apart here.
# Tests used:
# Assay in all cases: co-IP
# [1] = target: GluA2/3+GluA4 (rat (endogenous in adult Sprague-Dawley rat brain))
# [2] = target: AMPA receptor subunit GluA2 (rat (endogenous in adult Sprague-Dawley rat brain)) (UniProt P19491)
# [3] = target: AMPA receptor subunit GluA2 (rat (endogenous in adult Sprague-Dawley rat brain)) (UniProt P19491); remark: listed apart in the source
# [4] = target: AMPA receptor subunit GluA1 (rat (endogenous in adult Sprague-Dawley rat brain)) (UniProt P19490)
# Sequence of AMPA receptor subunit GluA1 (rat (endogenous in adult Sprague-Dawley rat brain)) (P19490 19-907): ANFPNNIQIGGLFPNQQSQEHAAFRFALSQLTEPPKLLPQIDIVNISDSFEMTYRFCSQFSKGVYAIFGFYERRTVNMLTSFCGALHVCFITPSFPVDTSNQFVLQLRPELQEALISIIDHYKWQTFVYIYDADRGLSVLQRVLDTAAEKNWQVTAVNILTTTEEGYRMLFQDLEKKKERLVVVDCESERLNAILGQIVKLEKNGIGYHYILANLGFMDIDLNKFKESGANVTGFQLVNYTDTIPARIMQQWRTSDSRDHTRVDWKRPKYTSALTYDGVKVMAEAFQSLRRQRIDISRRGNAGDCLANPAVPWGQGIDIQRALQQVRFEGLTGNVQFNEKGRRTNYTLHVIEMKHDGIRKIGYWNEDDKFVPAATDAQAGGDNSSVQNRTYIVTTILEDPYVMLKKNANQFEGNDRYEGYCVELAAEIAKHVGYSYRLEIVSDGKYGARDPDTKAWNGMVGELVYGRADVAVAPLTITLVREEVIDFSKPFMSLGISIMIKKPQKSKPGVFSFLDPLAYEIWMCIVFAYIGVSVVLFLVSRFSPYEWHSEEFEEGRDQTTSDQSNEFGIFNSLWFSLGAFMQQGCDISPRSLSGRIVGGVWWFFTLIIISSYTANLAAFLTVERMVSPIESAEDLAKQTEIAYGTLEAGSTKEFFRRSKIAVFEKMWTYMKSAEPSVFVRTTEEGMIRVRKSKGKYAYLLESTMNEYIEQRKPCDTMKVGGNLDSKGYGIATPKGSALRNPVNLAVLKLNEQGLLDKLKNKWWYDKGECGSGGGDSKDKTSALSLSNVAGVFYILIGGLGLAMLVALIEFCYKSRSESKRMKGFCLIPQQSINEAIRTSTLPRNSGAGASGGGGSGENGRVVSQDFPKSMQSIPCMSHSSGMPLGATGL
# [5] = target: AMPA receptor subunit GluA1 (rat (endogenous in adult Sprague-Dawley rat brain)) (UniProt P19490); remark: listed apart in the source
# [6] = target: AMPA receptor subunit GluA1 (rat (endogenous in adult Sprague-Dawley rat brain)) (UniProt P19490); remark: listed apart in the source
# [7] = target: AMPA receptor subunit GluA1 (rat (endogenous in adult Sprague-Dawley rat brain)) (UniProt P19490); remark: listed apart in the source
# Sequence of AMPA receptor subunit GluA2 (P19491 22-883): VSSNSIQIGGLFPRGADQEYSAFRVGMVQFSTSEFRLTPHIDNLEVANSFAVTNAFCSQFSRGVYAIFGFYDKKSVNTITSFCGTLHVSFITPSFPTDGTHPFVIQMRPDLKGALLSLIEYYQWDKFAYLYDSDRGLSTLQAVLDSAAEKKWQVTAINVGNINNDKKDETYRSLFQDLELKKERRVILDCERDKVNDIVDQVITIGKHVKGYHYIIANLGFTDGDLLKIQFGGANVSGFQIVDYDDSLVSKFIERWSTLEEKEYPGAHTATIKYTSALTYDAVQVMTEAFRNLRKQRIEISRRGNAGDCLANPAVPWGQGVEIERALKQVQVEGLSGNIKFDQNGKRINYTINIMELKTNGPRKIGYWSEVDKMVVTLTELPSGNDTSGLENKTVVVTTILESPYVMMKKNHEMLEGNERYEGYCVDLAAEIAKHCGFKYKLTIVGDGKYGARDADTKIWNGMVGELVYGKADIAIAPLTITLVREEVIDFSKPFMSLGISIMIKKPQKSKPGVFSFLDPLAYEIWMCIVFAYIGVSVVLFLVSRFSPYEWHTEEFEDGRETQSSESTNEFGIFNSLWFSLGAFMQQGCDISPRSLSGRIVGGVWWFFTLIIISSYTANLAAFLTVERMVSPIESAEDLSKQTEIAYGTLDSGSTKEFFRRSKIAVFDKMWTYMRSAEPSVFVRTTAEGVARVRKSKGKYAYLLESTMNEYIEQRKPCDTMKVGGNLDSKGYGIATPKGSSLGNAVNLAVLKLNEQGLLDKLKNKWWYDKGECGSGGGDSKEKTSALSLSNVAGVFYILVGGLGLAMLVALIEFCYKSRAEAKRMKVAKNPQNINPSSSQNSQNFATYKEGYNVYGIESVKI
# Sequence of AMPA receptor subunit GluA1 (P19490 19-907): as the sequence (P19490 19-907) above
# Sequence of AMPA receptor subunit GluA2 (rat (endogenous in adult Sprague-Dawley rat brain)) (P19491 22-883): as the sequence (P19491 22-883) above
percent of GluA1 removed by IP with GluA2/3+GluA4 antibodies [1] [%],percent of GluA1 complexed with GluA2 (the paper's estimate) [2] [%],percent of GluA1 complexed with GluA2 (the paper's estimate) [3] [%],percent of GluA2 left in the unbound fraction after IP with GluA1 antibody [4] [%],percent of GluA2 left in the unbound fraction after IP with GluA1 antibody [5] [%],percent of GluA2 left in the unbound fraction after IP with GluA1 antibody [6] [%],percent of GluA2 left in the unbound fraction after IP with GluA1 antibody [7] [%],Substance
93,> 80,> 80,–,–,–,–,AMPA receptor subunit GluA1 (from UniProt P19490 19-907)
–,–,–,55,53,62,65,AMPA receptor subunit GluA2 (from UniProt P19491 22-883)
